In US20110117086A1 (LES LABORATOIRES SERVIER, published 2011):
Values joined by “and” are separate entries in the source; they are usually repeats but may differ in a detail not shown here. Equal entries are not always repeated. Non-standard residues stand in square brackets, D forms with d. No end group written: not given here. KLH = keyhole limpet hemocyanin; Ahx = NCCCCCC(=O)O

T1: Recombinant human progastrin (human, UniProt P01350 22-101)
T1 sequence: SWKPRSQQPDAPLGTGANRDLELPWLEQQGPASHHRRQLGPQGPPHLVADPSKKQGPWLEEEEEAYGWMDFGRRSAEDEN

T2: Immunogen N2 = SWKPRSQQPDAPLG Ahx Cys KLH (human)
T2 construct: hPG residues 1 to 14 with linker, coupled to the KLH carrier; also called KLH-linked N-terminal peptide
T2 peptide: SWKPRSQQPDAPLG[Ahx]C-{KLH}

B1: Anti-hPG MAb 19 (antibody, V domains shown)
VH: DVQLQESGPGLVKPSQSLSLTCTVTGYSITSDYAWNWIRQFPGNKLEWMGYISFSGYTSYNPSLKSRISVTRDTSRNQFFLQLTSVTTEDTATYYCAREVNYGDSYHFDYWGQGTIVTVSS
VL: QLALTQSSSASFSLGASAKLTCTLSSQHRTYTIEWYQQQSLKPPKYVMEVKKDGSHSTGHGIPDRFSGSSSGADRYLSISNIQPEDEAIYICGVGDAIKGQSVFVFGGGTKVTVL
notes: Mouse IgG2, hybridoma 1B3B4F11, raised against immunogen N2; also called 1B3B4F11
B2: Anti-hPG MAb 8 (antibody, V domains shown)
VH: EVQLVESGGGLVKPGGSLKLSCAASGFTFTTYAMSWVRQTPEKRLEWVATISSGGTYTYYPDSVKGRFTISRDNAKNALYLQMSSLRSEDTAMYYCATQGNYSLDFWGQGTSLTVSS
VL: DIVMTQAASSNPVTLGTSASISCRSSKSLRHTKGITFLYWYLQKPGQSPQLLIYQMSNLASGVPDRFSSSGSGTDFTLRISRVEAEDLGVYYCAQNLELPLTFGAGTKLELK
notes: Mouse IgG1, hybridoma 1C10D3B9, raised against immunogen C1; also called 1C10D3B9
B3: Anti-hPG MAb 13 (antibody, V domains shown)
VH: EVQLVESGGGLVQPGGSLKLSCAASGFIFSSYGMSWVRQSPDRRLELVASINTFGDRTYYPDSVKGRFTISRDNAKNTLYLQMTSLKSEDTAIYYCARGTGTYWGQGTTLTVSS
VL: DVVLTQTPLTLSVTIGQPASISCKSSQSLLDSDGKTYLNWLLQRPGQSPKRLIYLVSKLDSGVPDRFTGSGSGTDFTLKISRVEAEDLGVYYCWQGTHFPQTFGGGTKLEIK
notes: Mouse IgG1, hybridoma 2C6C3C7, raised against immunogen C1; also called 2C6C3C7
B4: Anti-hPG MAb 16 (antibody, V domains shown)
VH: QVQLQQSGAELVKPGASVKLSCKASGYTFTSYYMYWVKQRPGQGLEWIGEINPSNGGTNFNEKFKSKATLTVDKSSSTAYMQLSSLTSEDSAVYYCTRGGYYPFDYWGQGTTLTVSS
VL: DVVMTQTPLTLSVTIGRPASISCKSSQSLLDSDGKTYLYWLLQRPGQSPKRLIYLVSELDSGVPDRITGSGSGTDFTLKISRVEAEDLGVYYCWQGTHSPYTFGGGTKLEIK
notes: Mouse IgG1, hybridoma 1E9D9B6, raised against immunogen N2; also called 1E9D9B6
B5: Anti-hPG MAb 4 (antibody, V domains shown)
VH: QVQLQQSGAELMKPGASVKISCKATGYTFSSSWIEWLKQRPGHGLEWIGEFLPGSGSTDYNEKFKGKATFTADTSSDTAYMLLSSLTSEDSAVYYCATDGNYDWFAYWGQGTLVTVSA
VL: DLVMTQTPLSLPVSLGDQASISCRSSQSLVHSSGVTYLHWYLQKPGQSPKLLIYKVSNRFSGVPDRFSGSGSGTDFTLKISRVEAEDLGVYFCSQSTHVPPTFGSGTKLEIK
notes: Mouse IgG1, hybridoma 20D2C3G2, raised against immunogen N2; also called 20D2C3G2
B6: Anti-hPG MAb 3 (antibody, V domains shown)
VH: EVQLQQSGTVLARPGASVKMSCKASGYIFTSYWVHWVKQRPGQGLEWIGGFYPGNSDSRYNQKFKGKATLTAVTSASTAYMDLSSLTNEDSAVYFCTRRDSPQYWGQGTTLTVSS
VL: DVLMTQTPLSLPVSLGDQASISCRSSQSIVHSNGNTYLEWYLQKPGQSPKLLIYKVSNRFSGVPDRFSGSGSGTDFTLKISRLEAEDLGVYYCFQGSHVPFTFGGGTKLEIK
notes: Mouse IgG1, hybridoma 6B5B11C10, raised against immunogen N2; also called 6B5B11C10

Assays:
[1] = target: T1, Recombinant human progastrin; assay: cell-based or functional assay
[2] = target: T1, Recombinant human progastrin; assay: cell-based or functional assay; remark: listed apart in the source
[3] = target: T1, Recombinant human progastrin; assay: SPR (Proteon), MAb captured on anti-mouse IgG, hPG injected
Procedure: To provide a more absolute quantification of affinity for the monoclonal antibodies, affinity constants were measured using the Proteon Technique (BioRad), according to Nahshol et al., 2008, Analytical Biochemistry 383:52-60, hereby incorporated by reference in its entirety. Briefly, an anti-mouse IgG antibody (50 μg/ml) was first coated on a sensor chip, making sure that the signal detected by the chip after injection of the antibody falls between 10,000 and 11,500 RU (response units). The murine monoclonal antibody to be tested was then injected (typical concentrations: 30 μg/ml). Sufficient binding of the antibody to be tested was determined based on a further signal of at least 500 RU on the sensor chip. A time-course of interaction between monoclonal anti-progastrin antibodies and progastrin was then measured by injecting varying concentrations of progastrin, for example 200, 100, 50, 25, and 12.5 nM, and the level of association detected. Typically, several channels are available to test multiple antibodies in parallel in a single experiment, making it possible to assay binding of test antibodies at varying concentrations of PG in parallel. Typically, one channel is reserved for a murine monoclonal antibody that is not specific to PG, as a control for non-specific binding, and another channel is injected with dilution buffer alone as a baseline for the background signal. Generally, no binding is detectable in the channels injected with non-specific murine antibody. Antibodies displaying a high level of association in this setting, which may result in saturation of the trapped monoclonal antibody by progastrin, can be tested against lower progastrin concentrations (50, 25, 12.5, 6.25 and 3.125 nM), allowing for a more refined measurement.
Affinity constants (KD) were calculated as the ratio between the dissociation constant (kd) and the association constant (ka). Experimental values were validated by analyzing the statistically relevant similarity between experimental curves based on binding measurements and theoretical profiles. The mathematical model used in the Proteon experiments to select whether experimental curves fit with the theoretical model was the Langmuir model, based on a 1:1 interaction between progastrin molecules and anti-progastrin monoclonal antibodies.

[4] = target: T1, Recombinant human progastrin; assay: cell-based or functional assay; remark: listed apart in the source
[5] = target: T1, Recombinant human progastrin; assay: cell-based or functional assay; remark: listed apart in the source
[6] = target: T1, Recombinant human progastrin; assay: ELISA on 50 ng coated hPG, antibody titrated, OD 492 nm, n=2
Procedure: After blocking, the wells were washed three times and the primary antibody—the antibody to be assayed—added. For initial screening of fused splenocytes, 50 μL of culture supernatant from each culture to be assayed was added to each well in the plate. In assays performed on monoclonal antibodies, 100 μL of the test antibody in PBS and 0.1% Tween-20 was added to each well. Plates were then incubated for 2 hours at 22° C., after which the primary antibody solution was discarded and replaced, after a wash step (3×100 μL wash solution, as noted above), with blocking solution containing the secondary antibody, which binds the primary antibody and is coupled to an enzyme. The secondary antibody was a goat anti-mouse IgG (Fc) antibody coupled to horseradish peroxidase. […] The reaction was then stopped by adding 50 μL of 4N sulfuric acid and the amount of substrate catalyzed determined by measuring the optical density (O.D.) at 492 nm. […] Samples were scored as positive for anti-PG antibodies if the measured O.D. was between 0.2 and 1.5. […]
Relative affinity of exemplary monoclonal antibodies was measured using the ELISA method described above, in which wells were coated with a peptide solution containing 50 ng progastrin and then incubated in the presence of increasing concentrations of each monoclonal antibody as follows: […]

[7] = target: T2, Immunogen N2 = SWKPRSQQPDAPLG Ahx Cys …; assay: ELISA of hybridoma supernatants
[8] = target: T1, Recombinant human progastrin; assay: competition ELISA: hPG captured by a C-terminal polyclonal antibody; MAb 3 titrated against 10 µg/ml biotinylated N-terminal anti-hPG polyclonal antibody; streptavidin-HRP, luminescence, n=2
Procedure: The ability of an anti-hPG monoclonal antibody to compete with an anti-hPG polyclonal antibody for binding to progastrin was determined using an ELISA with a “capture” anti-hPG antibody and a “detection” anti-hPG antibody. Anti-hPG MAb 3 was assayed as follows: 96-well plates were pre-coated with C-terminal progastrin polyclonal antibodies raised against a peptide consisting of residues 71 to 80 of hPG. The plates were then incubated with […] progastrin was incubated, followed by addition of 10 μg/ml biotinylated N-terminal anti-hPG polyclonal antibody, raised against a peptide consisting of the amino acid sequence of SEQ ID NO:25, and increasing concentrations of anti-hPG MAb 3 monoclonal antibody. Binding of the biotinylated N-terminal anti-hPG polyclonal antibody was detected by incubating the plates with streptavidin-HRP followed by OPD, according to standard protocols. Binding was measured by quantifying luminescence.

Binder	surviving HCT-116 cells, % of control MAb-treated cells (cell numbers - T0) [1]	surviving SW 620 cells, % of control MAb-treated cells (cell numbers - T0) [2]	Kd [3]	surviving LS 174T cells, % of control MAb-treated cells (cell numbers - T0) [4]	viable LS174T cells (CellTiter 96 absorbance at 490 nm), % of control MAb; anti-hPG MAb 8 pre-incubated with 20-fold molar excess hPG [5]	EC50 (read off the curve) [6] [ng/mL]	binding result [7]	IC50 (read off the curve) [8] [ng/mL]
B1	88 % of control	69 % of control	700 pM and 779 pM	84.5 % of control	–	–	–	–
B2	62 % of control	40 % of control	100 pM and 108 pM	42 % of control	148 % of control	–	–	–
B3	36 % of control	48 % of control	600 pM and 612 pM	58 % of control	–	–	–	–
B4	–	58 % of control	200 pM and 278 pM	61 % of control	–	~2	–	–
B5	–	–	3500 pM	–	–	~8	binds	–
B6	–	–	6400 pM	–	–	–	binds	~4000
